B1: GST-BRCTh (GST fusion with the human form of the BRCT tandem of BRCA1) (other)
chain: TASTERVNKRMSMVVSGLTPEEFMLVYKFARKHHITLTNLITEETTHVVMKTDAEFVCERTLKYFLGIAGGKWVVSYFWVTQSIKERKMLNEHDFEVRGDVVNGRNHQGPKRARESQDRKIFRGLEICCYGPFTNMPTDQLEWMVQLCGASVVKELSSFTLGTGVHPIVVVQPDAWTEDNGFHAIGQMCEAPVVTREWVLDSVALYQCQELDTYLIPQIPHSHY
notes: also called GST-human BRCT fusion protein; human BRCT tandem; not shown: glutathione S-transferase (GST) encoded by the pGEX vector
B2: GST-Brca1 N (GST fusion containing the 220 N-terminal residues of murine Brca1) (other)
chain: MDLSAVQIQEVQNVLHAMQKILECPICLELIKEPVSTKCDHIFCKFCMLKLLNQKKGPSQCPLCKNEITKRSLQGSTRFSQLAEELLRIMAAFELDTGMQLTNGFSFSKKRNNSCERLNEEASIIQSVGYRNRVRRLPQVEPGNATLKDSLGVQLSNLGIVRSVKKNRQTQPRKKSVYIELDSDSSEETVTKPGDCSVRDQELLQTAPQEAGDEGKLHSA
notes: also called GST fusion protein expressing the 220 amino-terminal residues of the murine Brca1 protein; not shown: glutathione S-transferase (GST); the vector for this construct is not described
B3: GST-BRCT (GST fusion protein containing amino acids 1583 to 1812 of murine Brca1) (other)
chain: TSSEERADRDISMVVSGLTPKEVMTVQKFAEKYRLTLTDAITEETTHVIIKTDAEFVCERTLKYFLGIAGGKWIVSYSWVVRSIQERRLLNVHEFEVKGDVVTGRNHQGPRRSRESREKLFKGLQVYCCEPFTNMPKDELERMLQLCGASVVKELPSLTHDTGAHLVVIVQPSAWTEDSNCPDIGQLCKARLVMWDWVLDSLSSYRCRGLDAYLVQNITCDSSEPQDSND
notes: Made in E. coli and held on glutathione-Sepharose beads; also called murine BRCT tandem; BRCT tandem of Brca1; not shown: glutathione S-transferase (GST) encoded by pGEX-4T-1 (Amersham Pharmacia Biotech)
B4: GST-BRCT L (GST fusion containing residues 1512-1812 of murine Brca1) (other)
chain: EGTPYLGSGISLFSSRDPESESPKEPAHIGTTPASTSALKIPQGQVAFRSAAAAGADKAVVGIVSKIKPELTSSEERADRDISMVVSGLTPKEVMTVQKFAEKYRLTLTDAITEETTHVIIKTDAEFVCERTLKYFLGIAGGKWIVSYSWVVRSIQERRLLNVHEFEVKGDVVTGRNHQGPRRSRESREKLFKGLQVYCCEPFTNMPKDELERMLQLCGASVVKELPSLTHDTGAHLVVIVQPSAWTEDSNCPDIGQLCKARLVMWDWVLDSLSSYRCRGLDAYLVQNITCDSSEPQDSND
notes: also called longer form of the murine BRCT domain; pGEX-BRCT L product; not shown: glutathione S-transferase (GST) encoded by pGEX-4T-1
B5: GST-BRCT B (GST fusion with the second BRCT module of murine Brca1 alone) (other)
chain: REKLFKGLQVYCCEPFTNMPKDELERMLQLCGASVVKELPSLTHDTGAHLVVIVQPSAWTEDSNCPDIGQLCKARLVMWDWVLDSLSSYRCRGLDAYLVQNITCDSSEPQDSND
notes: also called BRCT B module alone; pGEX-BRCT B product; not shown: GST carrier and vector linker of pGEX-4T-1 at the N end
B6: GST-BRCT M (GST-BRCT of murine Brca1 with the non-sense mutation W1777X) (other)
chain: TSSEERADRDISMVVSGLTPKEVMTVQKFAEKYRLTLTDAITEETTHVIIKTDAEFVCERTLKYFLGIAGGKWIVSYSWVVRSIQERRLLNVHEFEVKGDVVTGRNHQGPRRSRESREKLFKGLQVYCCEPFTNMPKDELERMLQLCGASVVKELPSLTHDTGAHLVVIVQPSAWTEDSNCPDIGQLCKARLVM
notes: also called mutated tandem; pGEX-BRCT M product; not shown: GST carrier and vector linker of pGEX-4T-1 at the N end
B7: GST-BRCT A (GST fusion with the first BRCT module of murine Brca1 alone) (other)
chain: TSSEERADRDISMVVSGLTPKEVMTVQKFAEKYRLTLTDAITEETTHVIIKTDAEFVCERTLKYFLGIAGGKWIVSYSWVVRSIQERRLLNVHEFEVKGDVVTGRNHQGPRRSRESREKLFKG
notes: It uses the same forward primer as GST-BRCT, so it probably starts at residue 1583; also called BRCT A module alone; pGEX-BRCT A product; not shown: GST carrier and vector linker of pGEX-4T-1 at the N end

How the values were obtained:
[1] = target: T1, murine ACC-α (acetyl-Coenzyme-A carboxylase, α form), endogenous protein of murine cell lysates (murine, UniProt Q5SWU9 1-2345); test: GST co-sedimentation on NIH3T3 lysate
[2] = target: T1, murine ACC-α (acetyl-Coenzyme-A …); test: GST co-sedimentation, Western blot with streptavidin-peroxidase
Description: (§1) The proteins for fusion with GST were synthesised in Escherichia coli, strain JM 109 (Promega) transformed with pGEX-4T-1, pGEX-BRCT, pGEX-BRCT A, pGEX-BRCT B, pGEX-BRCT L, pGEX-BRCT M or pGEX-BRCTh as well as the mutated forms of BRCTh (A1708E, P1749R, M1775R, R1835X and Y1853X). They were purified by affinity chromatography on Glutathione-Sepharose. The test of binding by co-sedimentation was carried out in vitro by incubating cellular lysates in the presence of non-recombinant GST proteins or GST fusion proteins and Glutathione-Sepharose beads. 10 μg of GST or fusion GST were used in each binding test. The protein complexes were carefully washed (50 mM Tris HCl pH 7.6, 100 mM KCl, 0.05% Tween 20, 1 mM DTT, 0.2 mM PMSF) to eliminate the non-specific protein interactions and released by heating at 100° C. in loading buffer 5× SDS-PAGE and 100 mM DTT. The proteins were analysed by SDS-PAGE and visualised by autoradiography, staining with silver (Bio-Rad SilverStain) or staining with Coomassie blue according to the nature of the lysate used
In order to map the domain of interaction of ACC-α on the BRCT tandem of Brca1, co-sedimentation tests with six distinct fusion proteins were carried out. The protein complexes of co-sedimentation were resolved by SDS-PAGE and visualised by Western Blot. The ACC protein containing the biotin was detected using peroxidase coupled with streptavidin, and as streptavidin has a high affinity for biotin it is therefore a very sensitive probe for detecting ACC-α (Witters, L. A. et al, 1994). […] However, the fragment GST-BRCT A which lacks the sequences of the domain B of BRCT is incapable of combining with ACC-α.

[3] = target: T1, murine ACC-α (acetyl-Coenzyme-A …); test: GST co-sedimentation in a lysate of murine fibroblasts
Description: The inventors have shown that the tandem of the two BRCT domains was necessary and sufficient for the formation of this complex. Moreover, the inventors have shown that the formation of this complex was conserved in the human cells, using a GST-human BRCT fusion protein in co-sedimentation experiments similar to those cited above.
as §1

[4] = target: T1, murine ACC-α (acetyl-Coenzyme-A …); test: GST co-sedimentation with the mutated tandem
Description: as §1
Numerous familial mutations have been found in the carboxy-terminal segment of BRCA1. One of these, R1835X, localised in the distal domain of BRCT, introduces a non-sense codon which suppresses the last 29 amino acids of Brca1 and thus breaks the second BRCT domain. […]

Binder	binding result [2]	also measured
B1	–	binding result [1]: binds
B2	no binding (tested: 10 µg of fusion GST per binding test)	–
B3	–	binding result [3]: binds
B4	binds	–
B5	no binding (tested: 10 µg of fusion GST per binding test)	–
B6	–	binding result [4]: no binding (tested: 10 µg of fusion GST per binding test)
B7	no binding (tested: 10 µg of fusion GST per binding test)	–

Source: patent US20060105403A1 (published 2006)
